{
  "source": "paper PMC11301259",
  "about": "“The crystal structure of methanogen McrD, a methyl‐coenzyme M reductase‐associated protein” (FEBS Open Bio, 2024)",
  "proteins": {"B1": {"name": "Methanomassiliicoccus luminyensis strain B10 McrD (natural protein, UniProt A0AAT8XUI9 1-139, looked up)", "chain": "MSTDKFEPVPLPEILIFPNRLLSAETTEKLLNRVYDVPHVRQVNISGEGVPAMVGSGPGKGLPVEHEGRKVINVKGREIELQLLVGRVFVEIDDIDVVEKAIEAIDEICQELLPFGYNLEVGRYSKYRPTVTDYKKGKR", "notes": "McrD of Methanomassiliicoccus luminyensis strain B10, NCBI WP_019176772.1; 139 amino acids; cloned with primers from the start codon to the stop codon; in the crystal residues 1-129/130 are modelled, the C-terminal 10 (monomer A) or 9 (monomer B) residues are disordered; 18 (monomer A) and 9 (monomer B) residues of the plasmid-encoded N-terminal tag are seen in the electron density, so the tag …"}},
  "target": "the molecule itself",
  "experiment": "crystal structure; McrD at 22 mg/mL crystallised at 4 °C in 0.03 M MgCl2, 0.03 M CaCl2, 0.05 M MES, 0.05 M imidazole pH 6.5, 20% glycerol, 10% PEG 4000, 0.02 M carboxylic acids mix; space group C222(1), two molecules in the asymmetric unit; 1.65 Å; oligomerisation analysis with PISA",
  "data": [
    {"protein": "B1", "values": [
      {"measurement": "stoichiometry N", "value": 2}
    ]}
  ]
}
